Assay results taken from the DeepSol protein solubility set.

Assay: soluble on expression in E. coli; label from the status in PepcDB or PDB records

Soluble on expression in E. coli, soluble:
MGHHHHHHSHMAAMLNFNLQQLCGPKCRDLKVENPEKYGFEPKKLLDQLTDIYLQLDCARFAKAIADDQRSYSKELFEEVISKMRKAGIKSTIAIEKFKLLAEKVEEIVAKNARAEIDYSDAPDEFRDPLMDTLMTDPVRLPSGTIMDRSIILRHLLNSPTDPFNRQTLTESMLEPVPELKEQIQAWMREKQNSDH
MGILFTRIWRLFNHQEHKVIIVGLDNAGKTTILYQFSMNEVVHTSPTIGSNVEEIVINNTRFLMWDIGGQESLRSSWNTYYTNTEFVIVVVDSTDRERISVTREELYKMLAHEDLRKAGLLIFANKQDVKECMTVAEISQFLKLTSIKDHQWHIQACCALTGEGLCQGLEWMMSRLKIRLEHHHHHH
MYGSEGGAMRIVAGVGENRNMERAASLADFEVDLVHSEEEFIEELRRGAAAYVRGSLPAANIMAELKKGGPLNRASWIEVGANGFLLAPVGIDEGRTVDDRFKIAVSASEFLRKTGEEPRVGVISGGRRGDLGRSPEVDRSIHEGEFLTSMIKDKYRVRHYHILIEEAVADGCNVIIAPDGITGNLIFRSLVLVGTARSYGAVALGFDGIFVDTSRSQTAEGYLRALKFAHWLARGWNEDNE
MSLRTASVIVDLPTRQTNQPFTYLIPDDLLDFNLLGHRVRVPFGKRNLMGYVVAVGQSERSDFQLKKIESIIDEKPVLNSEMLKLSEWLSNYVFSYRVQVIQTILPNAFKPKYLKGLKIVDQVPEKIKENIFLNNQEIEFLPKNYTSEQIKVINSLIRQGKIVQTTTIQKKNKGKKVKVLSNNLNDNDIATNLNKKSLSDSQKKLLIFLSGHRDGFFQVKELAEILDISKSTILTAEKKSWLKKSEVRMTRNPVKKIAVTKTNAVELNSDQKKVFNSVESAITKNENKTFLLEGITGSGKTEVYLQLIEKTIAQGKTALLLVPEIALTPQMIRLVKSRFLDSVALLHSGLSDGERLDQWEEIRDGKIKIVIGTRSAVFSPLTNIGLIIMDEEHETNYKQEGNPRYHARDIALWRAKYHQAVTLLGSATPSLESRARAQKGIFKLLTMNHRAVSGAKLPDVSIVDMREVWQKEHADNDFSPTLLKKIEERKENHEQTILLLNRRGFSSFVMCRNCGYVPRCPNCNLSLTLHMDSHSLKCHYCGYEEAIPKKCPVCGSPQIRYVGTGTEKIETKLNSLVNGIRVARLDQDTTKRKGSLEKILRDFGKGNYDVLLGTQMVAKGLDFPDVTLVGVINADIGLNLPDFRSGEKTFQLLTQVAGRSGRAGKTGEVIIQTFNPDNYAIKLAADQNYEGFYKTEMSIRHIADYSPYYYTIQVGIDGPDQFPASRAIDEVAEFIKPKLAKETIVLGPTPKAIAKLRNRYYFQIILKYKKDPNIESTLSELQTVFGEKLPKDIYLSIDRDPVSEGHHHHHH
MVDLEQEFALGGRCLAFHGPLMYEAKILKIWDPSSKMYTSIPNDKPGGSSQATKEIKPQKLGEDESIPEEIINGKCFFIHYQGWKSSWDEWVGYDRIRAYNEENIAMKKRLANEAKEAKKSLLEHHHHHH
MGHERDWSLVQVALTDITARKKAEAYLEYLGKHDVLTKLHNRAFYSDELNRLERSALRPVSAIVIDLNGLKEANDKLGHDAGDALLRRVGEVLNGVVTAPNHAARIGGDEFAILLPGADKQVAAAMVDTVYELLKINNQFYSSAPLSLSLGVATTEAGETMESLVRRADMNMYEQKNALEHHHHHH
MSGKPPAIFLMGPTAAGKTDLAIELTTVLPCELISVDSALVYRGMDIGSAKPSKEVLAAHPHRLIDILDPAQSYSAAQFRADALEAMAEITARGKIPLLVGGTMLYYKALIDGLADMPAADATVRAELEAQAEALGLAELHRQLAEVDPESAARIHPNDPQRLIRALEVYRVSGESMTAHRRRQFAESRGADAGAGGHLPYTVASLAIAPTDRHILHQRIALRFSQMLEQGFVDEVRSLRARSDLHAGLPSIRAVGYRQVWDYLDGKLTENEMRERGIIATRQLAKRQFTWLRGWPEVHWLDSLACDNLSRTLKYLGAISILSLEHHHHHH
AHHHHHHGSIRASKRALSVEYAIRDVVLPARELEKKGIKVIRLNIGDPVKFDFQPPEHMKEAYCKAIKEGHNYYGDSEGLPELRKAIVEREKRKNGVDITPDDVRVTAAVTEALQLIFGALLDPGDEILVPGPSYPPYTGLVKFYGGKPVEYRTIEEEDWQPDIDDIRKKITDRTKAIAVINPNNPTGALYDKKTLEEILNIAGEYEIPVISDEIYDLMTYEGEHISPGSLTKDVPVIVMNGLSKVYFATGWRLGYMYFVDPENKLSEVREAIDRLARIRLCPNTPAQFAAIAGLTGPMDYLKEYMKKLKERRDYIYKRLNEIPGISTTKPQGAFYIFPKIEVGPWKNDKEFVLDVLHNAHVLFVHGSGFGEYGAGHFRAVFLPPIEILEEAMDRFEKFMKERLKE
GPGSGLTELQMRARRCPNRQARIDWSEGEVRSFYQALSQYGTDFSAIAVLFPSRSRRDIKRLYQREMRQKPKEVQAALNQKHPIDMAVFEVRYEAKKKEAQQPVKMKKLNSEELAFLDEIAGRQPSESAMHMKGEELEVPVPAATLGGVEEATAAPPSRLRKRPRGTHQADSEDGPESKRATKEIPPAADDDFDMEQESFFDMVVRHEREDNAPLDMLFAAQLEQGQQQHLAALEDSDFSFE

Soluble on expression in E. coli, not soluble:
MVISLGDDITTVLKTVQQTLFALRDEHEAATRILEANLINSDSSEPSLPSEKMGLIDESLGKVMDGGDEASLLIMMDKLMQSYDVQLSKNHESIRLLRQENTWLLDELTTTQRKLQESERTVAHLEEERDHYKFQDSMNYLNSDFQHTTSVDATPMMVDTLQELGFGPEEEDQNNNQADQGCRSSSFSNPISNDYQLPTRLQTLQNLVIQYMEQGRFEVAIPLCKQALEDVVKVHGNVHLDVATMLNVLAIVYRNQENFKDAAIYLEKALSIRVQCCGENHHSVAATLNNLAIAYGKRGKYKESEPLCKRALEIRKNLLGPNHPDVAKQLTNLGIVTQQLEKYEETENYFKQALSIYNRAFPENHQNVIKTKNQLASVFLKQGKYQEAEEMYKNILSKVAITGNKPIWRIAEDREERQRNGIPKVDDESFNVNPTTVMDSNVMSTIKNLAAVYRKQGKEEAAGTLEEALGAKKQINGGADHTNSTASSVETSSAVAINPAQSGIKKRIMHFVGLNF
MGSDKIHHHHHHMPLTNHTPEDRVQDIFDHIAPQYDQMNSVISLGTHHWWRQRVMQAMTLHAGDFALDVCCGTGDWTIALAQAVGPAGHVVGFDFSGVMLQHATTKVRQAQLDDRITLRQGDAMQLPYPDNYFNVVTIGFGLRNVPDATQVLREMARVVKPGGQVVCLETSQPTNPLVHAGWQVYFGHVVPLMGRLAHHYQAYNYLQSSTHHFVSAKELSRLFTAAGLTQVHYDLFNLGAAAVHWGRKPY
MAHHHHHHMPKYYCEYCDIYLTHSSPVGRRQHIHGRKHISAKIEYFQNLLREEGITPQNFLGFLNNRNINNPLGNPMMNYMNPNMYMKYNPMKSYHSYSMRSSHPYRLNIHNNKYSRAGYVPPSHHKYSVNPMHNNYHQAHNNYSYPNSINPSNQINYSNNYGSNNFNNSNEFNKNMNEKDNINNNDIHDNKVKTDENDPINNDNLNNTRNFSYEENHYSTDHKKPSFLNPENSKEHIESDIS
IIHREYPRHHVLHRFTPASKPNGKKILITHGWMSRAAYMVRLIRLLHKEGYEVYAIDFPAHGEAKGIQLPWTDAIAIIKETINQFGPFYGLVGHSFGGSMILNTLNLAGQLPEWQLNHKPERAILIASPTQMRTPVNKIARRFKLSGQAYLQLRQLIRQQASVDPERIRLSHFISQAPDTYFLCIHGELDATINPKESINFCKYYKNARLSLLPDADHVSVLMDERVEQIALDFLNR
MQENPTVWLFDLDNTLHDADAGIFHLINRAMTRYMARRLKLSESAASDLRQDYWHRYGATLAGLQIHHPEIDIAEFLRESHPIDAILTRLHGMADTENTLCRLNGRKAVFSNGPSFYVRAVAGALGLENCFDALFGTDDFGLLYKPNPQAYLNVCRLLDVPPECCIMVDDSADNLHQAKALGMKTVRFGAKSHAPPFIDASVSDMAQLARYAETLSERRQNHYNTRTPRKYERMLCVKPSLS
MGSDKIHHHHHHMPTILEHLAALFDKDMRAVLSNPRAISMIANPSARVQMAAVRRDRSVICFIEKPTEKVQLTAVRNAPHNIHFITSPSERVQLTVIGIRPSYVGFIPNPTEKVQLKAVEKRPECIFLLQKPAEKVQLTAVLKDPRYLSAIREPTEKVQLAAVQKNPECIRHIAEPTEKVQHMAVQRSPDIFRQIRQPEESVRLAAVQAKGENIRYVSAPSEAVQLAAVRNDPMNIRYIENPTEKVQSVVLNADRDAAPFISSPTEEIKRLAMEMYGLRLENAAGKEAAAARTSETSGNSGKKATEGVAKKPSAKQVKEAVEKLDSEIREINREYFQATYEAQYSDNAAERESEISAAGKNREKKLVKAYEKFNSAAVPERKECNVGKIVKELRKERVAVENMKAGEWHSLMKGKAVQPPLVSGASGAAGKGSALMLARTPAGYALKAAGTINQASRQANAEM
MGYEGIIVVDVRDAEAYKECHIPTAISIPGNKINEDTTKRLSKEKVIITYCWGPACNGATKAAAKFAQLGFRVKELIGGIEYWRKENGEVEGTLGAKADLFWNMKKESLEHHHHHH
MSLAEPDDDWLHVEGTNIVDKYGNKVWITGANWFGFNCRERMLLDSYHSDIIADIELVADKGINVVRMPIATDLLYAWSQGIYPPSTDTSYNNPALAGLNSYELFNFMLENFKRVGIKVILDVHSPETDNQGHNYPLWYNTTITEEIFKKAWVWVAERYKNDDTIIGFDLKNEPHTNTGTMKIKAQSAIWDDSNHPNNWKRVAEETALAILEVHPNVLIFVEGVEMYPKDGIWDDETFDTSPWTGNNDYYGNWWGGNLRGVKDYPINLGKYQSQLVYSPHDYGPIVYEQDWFKGDFITANDEQAKRILYEQCWRDNWAYIMEEGISPLLLGEWGGMTEGGHPLLDLNLKYLRCMRDFILENKYKLHHTFWCINIDSADTGGLFTRDEGTPFPGGRDLKWNDNKYDNYLYPVLWKTEEGHHHHHH
MNFIVIGAGNIGSGIAQNLLEDGHEVEIADKSRESLNRIRGRNPKIRTREFDVMDRSAYRMLNDYDASVSALPGSIGMQFLKNVAKMGKIVVDVSYMEEDPYDLNGIAQSAGTIIVPDMGFAPGLTNAIVGYFSADLDQIRNVKIYVGGIPEKPVPPLDYTITWSVEGLIDEYTRPVRIVRNGTEDHVPALSGIERIGVGNYADMEAFYTDGLRSLIRNIKCTGEMFEKTIRYPGHAEKMAAIRDLGYFDRIKVDGCNLTMFEISEQIFMEKLFRPDIQDVVLMKVEVSGTKLGREVTRTAEMQTGYDSSRKRTAMDMATSLPASITAEFLSSNGKITSGIVFPEILGKTQNYFEYLVNNMKKKGINVNISVK
MAIFHLDFKIVKRSEGKSSVAKAAYHARCKITDERTGDTYDYSRRDDLYGHFILAPANAPEHIVKDSTSLWNEVERVERQNNGQTARYFDVSIPTELNNDEKKKLVLEYCQKNFVDKGMIADIAFHDLDSDNPHAHVMLTLKTIGPEGFGKKERSWNDRKMSVLWRESWASMANSYLATAGSSERIDHRSLQAQHEEALEKAAVALDNEEKALWLAKAAETNRPPMKRIHSAKWRSKAAQEQRAAEQTVRDAAKLEAVEVYKTFSELDLEIVVDVRSFTISVLPKPEEIVIPDFSTREKHQSIVSPVTSRRPAVKSYRAPNKATKVGMRGEGTPVLVAPEPNKSTKLKTSSSKKTRAMNRAPMHSRKQVKPHQNGLFKRLTTYMVCLFKEKFIWSKKKPIPVDAEHDKRIADNYVFDEIQGIYVSRAEYERRARFNNGTYSPAPDEVRRFPHRTKEEQHKVDDEPDYDPSSTPVPIISRKHLSLKPLEHHHHHH
